Patent US20220168396A1, “MULTI-RECEPTOR AGONIST AND MEDICAL USE THEREOF” (published 2022)
Square brackets hold non-standard residues; d marks the D form. Ends that are not written are not given here. Aib = CC(C)(N)C(=O)O

T1: human glucose-dependent insulinotropic peptide receptor (human, UniProt P48546)
T1 sequence: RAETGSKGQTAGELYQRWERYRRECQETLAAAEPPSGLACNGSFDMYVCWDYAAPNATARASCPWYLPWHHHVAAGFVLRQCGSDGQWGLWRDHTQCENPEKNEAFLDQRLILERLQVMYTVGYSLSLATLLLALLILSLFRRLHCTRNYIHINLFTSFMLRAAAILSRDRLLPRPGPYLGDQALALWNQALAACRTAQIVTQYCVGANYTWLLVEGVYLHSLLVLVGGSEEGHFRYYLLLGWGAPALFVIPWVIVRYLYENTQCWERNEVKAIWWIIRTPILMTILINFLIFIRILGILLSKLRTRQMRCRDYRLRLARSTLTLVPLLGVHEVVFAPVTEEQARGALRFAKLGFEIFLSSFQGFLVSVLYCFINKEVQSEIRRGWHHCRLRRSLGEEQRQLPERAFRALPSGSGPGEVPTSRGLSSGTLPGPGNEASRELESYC


target: human glucagon-like peptide-1 receptor (human, UniProt P43220); test: cell-based or functional assay

Row | Binder | Activity for human GLP-1R (EC50 nM), cAMP HTRF [nM]
1 | Y[Aib]EGTFTSDYSIYLEKIAAQEFVQWLIAGGPSSGAPPPS-NH2 (N-terminus assumed; SMILES CC[C@H](C)[C@H](NC(=O)[C@H](CCCCN)NC(=O)[C@H](CCC(=O)O)NC(=O)[C@H](CC(C)C)NC(=O)[C@H](Cc1ccc(O)cc1)NC(=O)[C@@H](NC(=O)[C@H](CO)NC(=O)[C@H](Cc1ccc(O)cc1)NC(=O)[C@H](CC(=O)O)NC(=O)[C@H](CO)NC(=O)[C@@H](NC(=O)[C@H](Cc1ccccc1)NC(=O)[C@@H](NC(=O)CNC(=O)[C@H](CCC(=O)O)NC(=O)C(C)(C)NC(=O)[C@@H](N)Cc1ccc(O)cc1)[C@@H](C)O)[C@@H](C)O)[C@@H](C)CC)C(=O)N[C@@H](C)C(=O)N[C@@H](C)C(=O)N[C@@H](CCC(N)=O)C(=O)N[C@@H](CCC(=O)O)C(=O)N[C@@H](Cc1ccccc1)C(=O)N[C@H](C(=O)N[C@@H](CCC(N)=O)C(=O)N[C@@H](Cc1c[nH]c2ccccc12)C(=O)N[C@@H](CC(C)C)C(=O)N[C@H](C(=O)N[C@@H](C)C(=O)NCC(=O)NCC(=O)N1CCC[C@H]1C(=O)N[C@@H](CO)C(=O)N[C@@H](CO)C(=O)NCC(=O)N[C@@H](C)C(=O)N1CCC[C@H]1C(=O)N1CCC[C@H]1C(=O)N1CCC[C@H]1C(=O)N[C@@H](CO)C(N)=O)[C@@H](C)CC)C(C)C) [Compound No. 79] | 0.012
2 | Y[Aib]EGTFTSDYSIYLDKIAAQEFVQWLLAGGPSSGAPPPSK-NH2 (N-terminus assumed; SMILES CC[C@H](C)[C@H](NC(=O)[C@H](CCCCN)NC(=O)[C@H](CC(=O)O)NC(=O)[C@H](CC(C)C)NC(=O)[C@H](Cc1ccc(O)cc1)NC(=O)[C@@H](NC(=O)[C@H](CO)NC(=O)[C@H](Cc1ccc(O)cc1)NC(=O)[C@H](CC(=O)O)NC(=O)[C@H](CO)NC(=O)[C@@H](NC(=O)[C@H](Cc1ccccc1)NC(=O)[C@@H](NC(=O)CNC(=O)[C@H](CCC(=O)O)NC(=O)C(C)(C)NC(=O)[C@@H](N)Cc1ccc(O)cc1)[C@@H](C)O)[C@@H](C)O)[C@@H](C)CC)C(=O)N[C@@H](C)C(=O)N[C@@H](C)C(=O)N[C@@H](CCC(N)=O)C(=O)N[C@@H](CCC(=O)O)C(=O)N[C@@H](Cc1ccccc1)C(=O)N[C@H](C(=O)N[C@@H](CCC(N)=O)C(=O)N[C@@H](Cc1c[nH]c2ccccc12)C(=O)N[C@@H](CC(C)C)C(=O)N[C@@H](CC(C)C)C(=O)N[C@@H](C)C(=O)NCC(=O)NCC(=O)N1CCC[C@H]1C(=O)N[C@@H](CO)C(=O)N[C@@H](CO)C(=O)NCC(=O)N[C@@H](C)C(=O)N1CCC[C@H]1C(=O)N1CCC[C@H]1C(=O)N1CCC[C@H]1C(=O)N[C@@H](CO)C(=O)N[C@@H](CCCCN)C(N)=O)C(C)C) [Compound No. 21] | 0.043
3 | Y[Aib]EGTFTSDVSIYLEKEAAKEFVNWLLAGGPSSGAPPPSK-NH2 (N-terminus assumed; SMILES CC[C@H](C)[C@H](NC(=O)[C@H](CO)NC(=O)[C@@H](NC(=O)[C@H](CC(=O)O)NC(=O)[C@H](CO)NC(=O)[C@@H](NC(=O)[C@H](Cc1ccccc1)NC(=O)[C@@H](NC(=O)CNC(=O)[C@H](CCC(=O)O)NC(=O)C(C)(C)NC(=O)[C@@H](N)Cc1ccc(O)cc1)[C@@H](C)O)[C@@H](C)O)C(C)C)C(=O)N[C@@H](Cc1ccc(O)cc1)C(=O)N[C@@H](CC(C)C)C(=O)N[C@@H](CCC(=O)O)C(=O)N[C@@H](CCCCN)C(=O)N[C@@H](CCC(=O)O)C(=O)N[C@@H](C)C(=O)N[C@@H](C)C(=O)N[C@@H](CCCCN)C(=O)N[C@@H](CCC(=O)O)C(=O)N[C@@H](Cc1ccccc1)C(=O)N[C@H](C(=O)N[C@@H](CC(N)=O)C(=O)N[C@@H](Cc1c[nH]c2ccccc12)C(=O)N[C@@H](CC(C)C)C(=O)N[C@@H](CC(C)C)C(=O)N[C@@H](C)C(=O)NCC(=O)NCC(=O)N1CCC[C@H]1C(=O)N[C@@H](CO)C(=O)N[C@@H](CO)C(=O)NCC(=O)N[C@@H](C)C(=O)N1CCC[C@H]1C(=O)N1CCC[C@H]1C(=O)N1CCC[C@H]1C(=O)N[C@@H](CO)C(=O)N[C@@H](CCCCN)C(N)=O)C(C)C) [Compound No. 7] | 0.016
4 | Y[Aib]EGTFTSDYSIYLEEEAAQEFVNWLLAGGPSSGAPPPS-NH2 (N-terminus assumed; SMILES CC[C@H](C)[C@H](NC(=O)[C@H](CO)NC(=O)[C@H](Cc1ccc(O)cc1)NC(=O)[C@H](CC(=O)O)NC(=O)[C@H](CO)NC(=O)[C@@H](NC(=O)[C@H](Cc1ccccc1)NC(=O)[C@@H](NC(=O)CNC(=O)[C@H](CCC(=O)O)NC(=O)C(C)(C)NC(=O)[C@@H](N)Cc1ccc(O)cc1)[C@@H](C)O)[C@@H](C)O)C(=O)N[C@@H](Cc1ccc(O)cc1)C(=O)N[C@@H](CC(C)C)C(=O)N[C@@H](CCC(=O)O)C(=O)N[C@@H](CCC(=O)O)C(=O)N[C@@H](CCC(=O)O)C(=O)N[C@@H](C)C(=O)N[C@@H](C)C(=O)N[C@@H](CCC(N)=O)C(=O)N[C@@H](CCC(=O)O)C(=O)N[C@@H](Cc1ccccc1)C(=O)N[C@H](C(=O)N[C@@H](CC(N)=O)C(=O)N[C@@H](Cc1c[nH]c2ccccc12)C(=O)N[C@@H](CC(C)C)C(=O)N[C@@H](CC(C)C)C(=O)N[C@@H](C)C(=O)NCC(=O)NCC(=O)N1CCC[C@H]1C(=O)N[C@@H](CO)C(=O)N[C@@H](CO)C(=O)NCC(=O)N[C@@H](C)C(=O)N1CCC[C@H]1C(=O)N1CCC[C@H]1C(=O)N1CCC[C@H]1C(=O)N[C@@H](CO)C(N)=O)C(C)C) [Compound No. 73] | 0.069
5 | Y[Aib]EGTFTSDVSSYLEEEHQKEFIAWLVRGGPSSGAPPPSK-NH2 (N-terminus assumed; SMILES CC[C@H](C)[C@H](NC(=O)[C@H](Cc1ccccc1)NC(=O)[C@H](CCC(=O)O)NC(=O)[C@H](CCCCN)NC(=O)[C@H](CCC(N)=O)NC(=O)[C@H](Cc1c[nH]cn1)NC(=O)[C@H](CCC(=O)O)NC(=O)[C@H](CCC(=O)O)NC(=O)[C@H](CCC(=O)O)NC(=O)[C@H](CC(C)C)NC(=O)[C@H](Cc1ccc(O)cc1)NC(=O)[C@H](CO)NC(=O)[C@H](CO)NC(=O)[C@@H](NC(=O)[C@H](CC(=O)O)NC(=O)[C@H](CO)NC(=O)[C@@H](NC(=O)[C@H](Cc1ccccc1)NC(=O)[C@@H](NC(=O)CNC(=O)[C@H](CCC(=O)O)NC(=O)C(C)(C)NC(=O)[C@@H](N)Cc1ccc(O)cc1)[C@@H](C)O)[C@@H](C)O)C(C)C)C(=O)N[C@@H](C)C(=O)N[C@@H](Cc1c[nH]c2ccccc12)C(=O)N[C@@H](CC(C)C)C(=O)N[C@H](C(=O)N[C@@H](CCCNC(=N)N)C(=O)NCC(=O)NCC(=O)N1CCC[C@H]1C(=O)N[C@@H](CO)C(=O)N[C@@H](CO)C(=O)NCC(=O)N[C@@H](C)C(=O)N1CCC[C@H]1C(=O)N1CCC[C@H]1C(=O)N1CCC[C@H]1C(=O)N[C@@H](CO)C(=O)N[C@@H](CCCCN)C(N)=O)C(C)C) [Compound No. 3] | 0.578

target: T1, human glucose-dependent insulinotropic …; test: cell-based or functional assay

Row | Binder | Activity for human GIPR (EC50 nM), cAMP HTRF [nM]
6 | Y[Aib]EGTFTSDVSSYLEEEHQKEFIAWLVRGGPSSGAPPPSK-NH2 (N-terminus assumed; SMILES CC[C@H](C)[C@H](NC(=O)[C@H](Cc1ccccc1)NC(=O)[C@H](CCC(=O)O)NC(=O)[C@H](CCCCN)NC(=O)[C@H](CCC(N)=O)NC(=O)[C@H](Cc1c[nH]cn1)NC(=O)[C@H](CCC(=O)O)NC(=O)[C@H](CCC(=O)O)NC(=O)[C@H](CCC(=O)O)NC(=O)[C@H](CC(C)C)NC(=O)[C@H](Cc1ccc(O)cc1)NC(=O)[C@H](CO)NC(=O)[C@H](CO)NC(=O)[C@@H](NC(=O)[C@H](CC(=O)O)NC(=O)[C@H](CO)NC(=O)[C@@H](NC(=O)[C@H](Cc1ccccc1)NC(=O)[C@@H](NC(=O)CNC(=O)[C@H](CCC(=O)O)NC(=O)C(C)(C)NC(=O)[C@@H](N)Cc1ccc(O)cc1)[C@@H](C)O)[C@@H](C)O)C(C)C)C(=O)N[C@@H](C)C(=O)N[C@@H](Cc1c[nH]c2ccccc12)C(=O)N[C@@H](CC(C)C)C(=O)N[C@H](C(=O)N[C@@H](CCCNC(=N)N)C(=O)NCC(=O)NCC(=O)N1CCC[C@H]1C(=O)N[C@@H](CO)C(=O)N[C@@H](CO)C(=O)NCC(=O)N[C@@H](C)C(=O)N1CCC[C@H]1C(=O)N1CCC[C@H]1C(=O)N1CCC[C@H]1C(=O)N[C@@H](CO)C(=O)N[C@@H](CCCCN)C(N)=O)C(C)C) [Compound No. 3] | 0.91
7 | Y[Aib]EGTFTSDVSIYLEKIAAQEFVNWLLAGGPSSGAPPPS-NH2 (N-terminus assumed; SMILES CC[C@H](C)[C@H](NC(=O)[C@H](CCCCN)NC(=O)[C@H](CCC(=O)O)NC(=O)[C@H](CC(C)C)NC(=O)[C@H](Cc1ccc(O)cc1)NC(=O)[C@@H](NC(=O)[C@H](CO)NC(=O)[C@@H](NC(=O)[C@H](CC(=O)O)NC(=O)[C@H](CO)NC(=O)[C@@H](NC(=O)[C@H](Cc1ccccc1)NC(=O)[C@@H](NC(=O)CNC(=O)[C@H](CCC(=O)O)NC(=O)C(C)(C)NC(=O)[C@@H](N)Cc1ccc(O)cc1)[C@@H](C)O)[C@@H](C)O)C(C)C)[C@@H](C)CC)C(=O)N[C@@H](C)C(=O)N[C@@H](C)C(=O)N[C@@H](CCC(N)=O)C(=O)N[C@@H](CCC(=O)O)C(=O)N[C@@H](Cc1ccccc1)C(=O)N[C@H](C(=O)N[C@@H](CC(N)=O)C(=O)N[C@@H](Cc1c[nH]c2ccccc12)C(=O)N[C@@H](CC(C)C)C(=O)N[C@@H](CC(C)C)C(=O)N[C@@H](C)C(=O)NCC(=O)NCC(=O)N1CCC[C@H]1C(=O)N[C@@H](CO)C(=O)N[C@@H](CO)C(=O)NCC(=O)N[C@@H](C)C(=O)N1CCC[C@H]1C(=O)N1CCC[C@H]1C(=O)N1CCC[C@H]1C(=O)N[C@@H](CO)C(N)=O)C(C)C) [Compound No. 68] | 0.047
8 | Y[Aib]EGTFTSDYSIYLEKEAAKEFIAWLLAGGPSSGAPPPS-NH2 (N-terminus assumed; SMILES CC[C@H](C)[C@H](NC(=O)[C@H](Cc1ccccc1)NC(=O)[C@H](CCC(=O)O)NC(=O)[C@H](CCCCN)NC(=O)[C@H](C)NC(=O)[C@H](C)NC(=O)[C@H](CCC(=O)O)NC(=O)[C@H](CCCCN)NC(=O)[C@H](CCC(=O)O)NC(=O)[C@H](CC(C)C)NC(=O)[C@H](Cc1ccc(O)cc1)NC(=O)[C@@H](NC(=O)[C@H](CO)NC(=O)[C@H](Cc1ccc(O)cc1)NC(=O)[C@H](CC(=O)O)NC(=O)[C@H](CO)NC(=O)[C@@H](NC(=O)[C@H](Cc1ccccc1)NC(=O)[C@@H](NC(=O)CNC(=O)[C@H](CCC(=O)O)NC(=O)C(C)(C)NC(=O)[C@@H](N)Cc1ccc(O)cc1)[C@@H](C)O)[C@@H](C)O)[C@@H](C)CC)C(=O)N[C@@H](C)C(=O)N[C@@H](Cc1c[nH]c2ccccc12)C(=O)N[C@@H](CC(C)C)C(=O)N[C@@H](CC(C)C)C(=O)N[C@@H](C)C(=O)NCC(=O)NCC(=O)N1CCC[C@H]1C(=O)N[C@@H](CO)C(=O)N[C@@H](CO)C(=O)NCC(=O)N[C@@H](C)C(=O)N1CCC[C@H]1C(=O)N1CCC[C@H]1C(=O)N1CCC[C@H]1C(=O)N[C@@H](CO)C(N)=O) [Compound No. 67] | 0.017
